From patent publication US9611296B2, “Peptides that bind to amino-truncated amyloid-beta-peptide and use of said peptides” (FORSCHUNGSZENTRUM JUELICH GMBH, priority 2012, dated 2017)
Square brackets hold non-standard residues; d marks the D form. Ends that are not written are not given here.

Biological target: T1, Aβ plaques (Homo sapiens, UniProt P05067)
T1 construct: have an increased Aβ 1-42 expression and plaque formation; from tissue; host or cells: frontal brain slices of transgenic Tg2576 mice aged 10 to 11 months
Assay: Ex vivo histological staining of plaques in frontal brain slices of transgenic Tg2576 mice with FITC-labelled D-peptides (fluorescence microscopy, Congo red control)
Type: binding
Settings: frontal brain slices (cortex) of Tg2576 mice aged 10 to 11 months; for region of the plaques stained (more intensely): FITC-labelled peptide
Excerpt: The binding properties of the available peptides to Aβ plaques were investigated. For staining frontal brain slices, use was made of preparations of transgenic Tg2576 mice aged from 10 to 11 months, which due to the human APP gene bearing the Swedish mutation have an increased Aβ 1-42 expression and plaque formation. In these mice, it was also possible to detect AβpE3-x as a plaque constituent.
For the tests, the peptides were synthetically produced and labelled by a commercial supplier, A test was then carried out, ex vivo, to determine the regions of the plaques to which binding had mainly taken place. It must be assumed here that Aβ plaques consist of different Aβ species, such as, for example, Aβ1-40, 1-42 and AβpE3-x.
All the peptides are combined with fluorescein isothiocyanate (FITC) for detection by means of fluorescence microscopy.
As a further control, the same tests were carried out after Congo red staining, which served to verify the plaque structures (bottom image in each case). It must be assumed that the plaques are composed of different Aβ isoforms (Aβ 1-40, 1-42, AβpE3-x). Slices from wild-type animals without plaque formation were also treated. In these tests, no Congo red or fluorescein fluorescence could be detected (data not shown).

T1 sequence (P05067 672-713 limits assumed): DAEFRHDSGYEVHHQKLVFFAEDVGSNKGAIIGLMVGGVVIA

“AGERLKFIDEHV ([dA]G[dE][dR][dL][dK][dF][dI][dD][dE][dH][dV]) [D6]” was tested, and the “region of the plaques stained (more intensely)” value (“region of the plaques stained” below) was “ring-shaped structures around the inner core of the plaques were stained more intensely” and the “type of plaques stained by the peptide” value was “only plaques having a relatively dense structure, consisting of Aβ fibrils, were stained, but not small and diffuse plaques”.

For “NGAPNKIPRDRE ([dN]G[dA][dP][dN][dK][dI][dP][dR][dD][dR][dE]) [D5, dodecameric D-peptide selected by mirror image phage display against aggregation-nucleus-free AβpE3-x]”, the “region of the plaques stained” value was “ring-shaped structures around the inner core of the plaques were stained more intensely” and the “type of plaques stained by the peptide” value was “only plaques having a relatively dense structure, consisting of Aβ fibrils, were stained, but not small and diffuse plaques”.

In the case of “HTRFEYYVYHMS ([dH][dT][dR][dF][dE][dY][dY][dV][dY][dH][dM][dS]) [D7]”, the “region of the plaques stained” value is reported as “at the inner core of the plaques” and the “type of plaques stained by the peptide” value is reported as “stained only dense structures”.

With “KMEHPNHPPPQR ([dK][dM][dE][dH][dP][dN][dH][dP][dP][dP][dQ][dR]) [D4, dodecameric D-peptide selected by mirror image phage display against aggregation-nucleus-free AβpE3-x]” the “region of the plaques stained” value was “ring-shaped structures around the inner core of the plaques were stained more intensely” and the “type of plaques stained by the peptide” value was “only plaques having a relatively dense structure, consisting of Aβ fibrils, were stained, but not small and diffuse plaques”.
